The values below come from publication PMC9482650, “Quantitative fragmentomics allow affinity mapping of interactomes” (Nature Communications, 2022).

Some targets named below: GRIP2_5, Q9C0E4; TJP1_2, Q07157; AHNAK1, Q09666; HTRA2, O43464; GRIP2_3, Q9C0E4; Inadl_4, Q8NI35; DLG2_3, Q15700; GORASP2, Q9H8Y8.
Holding throughout (assay): holdup assay
Holding throughout (parameters): key: below the threshold = too weak to quantify, mostly under pKd 3.1 to 4

Another experiment concerns the target T1, TX1BP3, O14907.
T1 sequence (O14907 10-122, limits assumed, looked up): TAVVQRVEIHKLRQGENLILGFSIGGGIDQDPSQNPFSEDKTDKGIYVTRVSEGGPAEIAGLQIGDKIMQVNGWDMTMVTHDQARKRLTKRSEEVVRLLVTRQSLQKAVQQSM

The next experiment concerns the target T2, MPDZ_10, O75970.
T2 sequence (O75970 1624-1722, limits assumed, looked up): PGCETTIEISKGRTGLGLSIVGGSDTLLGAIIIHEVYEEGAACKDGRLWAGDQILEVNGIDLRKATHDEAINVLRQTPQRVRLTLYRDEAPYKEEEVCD

A further experiment addresses T3, APBA1_1, Q02410.
T3 sequence (Q02410 651-752, limits assumed, looked up): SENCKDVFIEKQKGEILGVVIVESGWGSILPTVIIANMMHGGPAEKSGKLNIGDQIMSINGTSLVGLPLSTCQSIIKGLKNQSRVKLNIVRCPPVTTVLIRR

Another experiment has as its target T4, GRIP1_3, Q9Y3R0.
T4 sequence (Q9Y3R0 247-346, limits assumed, looked up): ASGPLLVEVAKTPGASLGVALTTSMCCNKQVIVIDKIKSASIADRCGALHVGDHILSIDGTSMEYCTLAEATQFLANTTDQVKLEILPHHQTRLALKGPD

A further experiment deals with T5, SIPA1L2, Q9P2F8.
T5 sequence (Q9P2F8 945-1036, limits assumed, looked up): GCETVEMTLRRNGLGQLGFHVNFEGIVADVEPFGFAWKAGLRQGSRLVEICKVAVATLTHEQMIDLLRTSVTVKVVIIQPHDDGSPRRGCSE

The target of another experiment is T6, GRIP1_2, Q9Y3R0.
T6 sequence (Q9Y3R0 145-248, limits assumed, looked up): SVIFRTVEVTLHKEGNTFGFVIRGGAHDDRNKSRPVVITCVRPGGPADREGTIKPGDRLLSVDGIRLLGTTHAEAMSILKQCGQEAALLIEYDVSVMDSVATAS

For a further experiment, the target named is T7, MPP6, Q9NZW5.
T7 sequence (Q9NZW5 125-219, limits assumed, looked up): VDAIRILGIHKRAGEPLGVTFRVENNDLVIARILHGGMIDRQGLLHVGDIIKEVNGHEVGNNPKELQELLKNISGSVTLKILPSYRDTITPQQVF

Another experiment concerns the target T8, TJP3_3, O95049.
T8 sequence (O95049 375-456, limits assumed, looked up): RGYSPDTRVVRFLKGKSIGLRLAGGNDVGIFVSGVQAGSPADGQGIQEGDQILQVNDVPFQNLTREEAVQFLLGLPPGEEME

Another experiment deals with T9, LNX2_2, Q8N448.
T9 sequence (Q8N448 334-432, limits assumed, looked up): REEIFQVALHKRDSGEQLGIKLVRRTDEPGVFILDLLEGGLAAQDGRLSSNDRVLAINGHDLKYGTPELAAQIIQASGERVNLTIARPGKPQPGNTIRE

For the next experiment, the target named is T10, CARD11, Q9BXL7.
T10 sequence (Q9BXL7 662-765, limits assumed, looked up): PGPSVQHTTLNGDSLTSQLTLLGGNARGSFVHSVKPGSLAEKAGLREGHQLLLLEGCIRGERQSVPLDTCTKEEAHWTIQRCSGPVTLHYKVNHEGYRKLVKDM

The target in the next experiment is T11, DFNB31_2, Q9P202.
T11 sequence (Q9P202 274-371, limits assumed, looked up): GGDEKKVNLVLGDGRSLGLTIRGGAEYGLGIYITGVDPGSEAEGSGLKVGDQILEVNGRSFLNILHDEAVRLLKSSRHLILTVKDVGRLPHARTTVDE

The next experiment concerns the target T12, PTPN13_1, Q12923.
T12 sequence (Q12923 1088-1188, limits assumed, looked up): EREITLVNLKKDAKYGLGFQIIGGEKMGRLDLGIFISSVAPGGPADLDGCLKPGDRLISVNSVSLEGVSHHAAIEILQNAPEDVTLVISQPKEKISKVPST

The target in a further experiment is T13, SNTA1, Q13424.
T13 sequence (Q13424 82-180, limits assumed, looked up): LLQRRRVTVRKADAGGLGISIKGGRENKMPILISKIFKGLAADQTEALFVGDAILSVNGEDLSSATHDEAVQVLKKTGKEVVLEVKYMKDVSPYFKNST

A further experiment concerns the target T14, GRIP1_5, Q9Y3R0.
T14 sequence (Q9Y3R0 568-668, limits assumed, looked up): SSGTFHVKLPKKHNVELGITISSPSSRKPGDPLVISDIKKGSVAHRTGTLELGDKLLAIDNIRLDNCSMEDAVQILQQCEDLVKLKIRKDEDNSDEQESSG

Setting [1] is: plain residues with an end cap or a label only (N-terminal biotin on a linker: ttds).
Where [2] appears, read: plain residues with an end cap or a label only (N-terminal biotin on a linker: ado-ado).

In general, pKd refers to the Kd on a negative log10 scale, so that one unit is a factor of ten.

Sequence of Inadl_4, Q8NI35 (Q8NI35 547-651): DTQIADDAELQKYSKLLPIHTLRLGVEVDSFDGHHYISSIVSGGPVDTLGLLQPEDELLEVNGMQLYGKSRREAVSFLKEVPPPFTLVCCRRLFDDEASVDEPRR
Sequence of GRIP2_5, Q9C0E4 (Q9C0E4 544-642): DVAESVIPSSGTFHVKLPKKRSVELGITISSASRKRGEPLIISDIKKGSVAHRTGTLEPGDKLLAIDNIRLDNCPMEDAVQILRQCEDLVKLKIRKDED
Sequence of HTRA2, O43464 (O43464 355-458): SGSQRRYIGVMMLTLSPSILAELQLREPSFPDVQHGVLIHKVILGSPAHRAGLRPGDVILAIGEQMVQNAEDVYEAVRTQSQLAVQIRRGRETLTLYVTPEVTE
Sequence of GRIP2_3, Q9C0E4 (Q9C0E4 238-339): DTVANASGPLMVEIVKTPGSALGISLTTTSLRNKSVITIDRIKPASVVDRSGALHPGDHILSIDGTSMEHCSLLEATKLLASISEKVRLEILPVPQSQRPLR
Sequence of AHNAK1, Q09666 (Q09666 4-100): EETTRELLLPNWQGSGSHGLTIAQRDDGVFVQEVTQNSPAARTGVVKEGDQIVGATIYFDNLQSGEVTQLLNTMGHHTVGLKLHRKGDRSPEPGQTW
Sequence of TJP1_2, Q07157 (Q07157 181-274): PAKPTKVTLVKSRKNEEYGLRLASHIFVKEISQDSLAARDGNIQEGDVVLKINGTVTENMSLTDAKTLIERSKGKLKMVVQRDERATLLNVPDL

B1: CTNNB1, P35222 (peptide)
chain: NQLAWFDTDL
In the case of B1, the negative logarithm of the Kd (pKd) was 5.99 with TX1BP3, O14907 (setting [1]); “below the threshold” in the experiment with MPDZ_10, O75970 (setting [1]); “below the threshold” in the experiment with GRIP2_5, Q9C0E4 (setting [1]); “below the threshold” with APBA1_1, Q02410 (setting [1]); “below the threshold” with GRIP1_3, Q9Y3R0 (setting [1]); “below the threshold” in the experiment with SIPA1L2, Q9P2F8 (setting [1]). Further, the negative-log Kd (pKd) entry was “below the threshold” in the experiment with TJP1_2, Q07157 (setting [1]); “below the threshold” with GRIP1_2, Q9Y3R0 (setting [1]); “below the threshold” with AHNAK1, Q09666 (setting [1]); “below the threshold” with HTRA2, O43464 (setting [1]); “below the threshold” in the experiment with MPP6, Q9NZW5 (setting [1]); “below the threshold” with TJP3_3, O95049 (setting [1]). Moreover, the pKd entry in the experiment with LNX2_2, Q8N448 (setting [1]) is “below the threshold”; in the experiment with CARD11, Q9BXL7 (setting [1]) it was “below the threshold”; in the experiment with DFNB31_2, Q9P202 (setting [1]) it was “below the threshold”; in the experiment with PTPN13_1, Q12923 (setting [1]), “below the threshold”; with GRIP2_3, Q9C0E4 (setting [1]), “below the threshold”; with SNTA1, Q13424 (setting [1]) it was “below the threshold”. The pKd entry with Inadl_4, Q8NI35 (setting [1]) was “below the threshold”; with DLG2_3, Q15700 (setting [1]), “below the threshold”; with GRIP1_5, Q9Y3R0 (setting [1]) it was “below the threshold”; in the experiment with GORASP2, Q9H8Y8 (setting [1]), “below the threshold”.

B2: ACOT6, Q3I5F7 (peptide)
chain: GKKSVKHSKI
For B2, the pKd entry with TX1BP3, O14907 (setting [2]) is listed as “below the threshold”; with MPDZ_10, O75970 (setting [2]) it was “below the threshold”; with GRIP2_5, Q9C0E4 (setting [2]), “below the threshold”; in the experiment with APBA1_1, Q02410 (setting [2]), “below the threshold”; in the experiment with GRIP1_3, Q9Y3R0 (setting [2]), “below the threshold”; in the experiment with SIPA1L2, Q9P2F8 (setting [2]), “below the threshold”. In addition, the pKd result with TJP1_2, Q07157 (setting [2]) was “below the threshold”; in the experiment with GRIP1_2, Q9Y3R0 (setting [2]), “below the threshold”; with AHNAK1, Q09666 (setting [2]), “below the threshold”; in the experiment with HTRA2, O43464 (setting [2]), “below the threshold”; in the experiment with MPP6, Q9NZW5 (setting [2]), 3.5; in the experiment with TJP3_3, O95049 (setting [2]) it was “below the threshold”. The pKd entry with LNX2_2, Q8N448 (setting [2]) was “below the threshold”; with CARD11, Q9BXL7 (setting [2]) it was “below the threshold”; with DFNB31_2, Q9P202 (setting [2]), 3.81; with PTPN13_1, Q12923 (setting [2]), 3.47; with GRIP2_3, Q9C0E4 (setting [2]), “below the threshold”; in the experiment with SNTA1, Q13424 (setting [2]) it was 3.55. The negative-log Kd (pKd) entry with Inadl_4, Q8NI35 (setting [2]) was “below the threshold”; in the experiment with DLG2_3, Q15700 (setting [2]), 3.65; with GRIP1_5, Q9Y3R0 (setting [2]) it was “below the threshold”; with GORASP2, Q9H8Y8 (setting [2]), “below the threshold”.
